Measured values taken from patent publication US20220227883A1 (published 2022).
Where “and” joins values, the source holds several entries; their conditions need not be identical. Equal entries are not always repeated.

T1: KRAS wild type peptide on HLA-A*02:01 (human)
T1 peptide: KLVVVGAGGV

T2: KRAS G12D peptide on HLA-A*02:01 (human)
T2 peptide: KLVVVGADGV

T3: KRAS G12V peptide on HLA-A*02:01 (human)
T3 peptide: KLVVVGAVGV


What was measured:
[1] = molecular target: HLA-A*02:01 presented KRAS^G12V epitope on cells (human); test: cell-based or functional assay
[2] = molecular target: HLA-A*02:01 presented KRAS^G12D epitope on cells (human); test: cell-based or functional assay
[3] = molecular target: HLA-A*02:01 presented KRAS^wild type epitope on cells (human); test: cell-based or functional assay
[4] = molecular target: A*02:01-KRAS^G12V tetramer (human) (UniProt P61769); test: tetramer staining of TCR-transduced T cells, flow cytometry (FIG. 24)
[5] = molecular target: T1, KRAS wild type peptide on HLA-A*02:01; test: killing
Protocol: (§1) KTCR1, KRAS^G12V-specific, HLA-A*02:01-restricted TCR and KTCR2 and KTCR3, KRAS^G12D-specific, HLA-A*02:01-restricted TCRs were co cultured with K562-A*02:01 antigen presenting cells which were peptide pulsed with either the KRAS^G12D, KRAS^G12V, KRAS^WT peptide (10 μg/mL) for 5 hours at an effector to target cell ratio of 5:1.

[6] = molecular target: T2, KRAS G12D peptide on HLA-A*02:01; test: multimer staining
[7] = molecular target: T3, KRAS G12V peptide on HLA-A*02:01; test: multimer staining
[8] = molecular target: T2, KRAS G12D peptide on HLA-A*02:01; test: killing
Protocol: as §1

[9] = molecular target: T3, KRAS G12V peptide on HLA-A*02:01; test: killing
Protocol: as §1

Binder | Mean % cytotoxicity (cell lysis) of K562 A*02:01 + KRAS^G12V target cells, FVS780 flow cytometry, 5 hours, effector to target 5:1 [1] | Mean % cytotoxicity (cell lysis) of K562 A*02:01 + KRAS^G12D target cells, FVS780 flow cytometry, 5 hours, effector to target 5:1 [2] | Mean % cytotoxicity (cell lysis) of K562 + KRAS^Wild type target cells, FVS780 flow cytometry, 5 hours, effector to target 5:1 [3] | binding result [5] | binding result [8] | binding result [9] | further results
KTCR-1 (TCR, V domains shown) Valpha: TQLLEQSPQFLSIQEGENLTVYCNSSSVFSSLQWYRQEPGEGPVLLVTVVTGGEVKKLKRLTFQFGDARKDSSLHITAAQPGDTGLYLCAGEFESNAGNMLTFGGGTRLMVKP Vbeta: DGGITQSPKYLFRKEGQNVTLSCEQNLNHDAMYWYRQDPGQGLRLIYYSQIVNDFQKGDIAEGYSVSREKKESFPLTVTSAQKNPTAFYLCASSIWLGPKGPGELFFGEGSRLTVL | 16.5% | 4% | 2.9% | no recognition | – | – | IFNγ ELISpot, KTCR-1 CD8+ T cells co-cultured with CFPAC-1 (HLA-A*02:01^+ KRAS^G12V), Mean (SFU of IFNγ/2.0 × 10^4 cell input) [1]: 42; IFNγ ELISpot, KTCR-1 CD8+ T cells co-cultured with CFPAC-1 (HLA-A*02:01^+ KRAS^G12V), replicate (SFU of IFNγ/2.0 × 10^4 cell input) [1]: 52 and 42; IFNγ ELISpot, KTCR-1 CD8+ T cells co-cultured with PANC-1 (HLA-A*02:01^+ KRAS^G12D), Mean (SFU of IFNγ/2.0 × 10^4 cell input) [2]: 19.5; IFNγ ELISpot, KTCR-1 CD8+ T cells co-cultured with PANC-1 (HLA-A*02:01^+ KRAS^G12D), replicate (SFU of IFNγ/2.0 × 10^4 cell input) [2]: 13 and 18; percent of TCR transduced T cells tetramer positive [4]: > 90%; binding result [6]: no recognition; binding result [7]: recognises
KTCR-3 (TCR, V domains shown) Valpha: TQLLEQSPQFLSIQEGENLTVYCNSSSVFSSLQWYRQEPGEGPVLLVTVVTGGEVKKLKRLTFQFGDARKDSSLHITAAQPGDTGLYLCAGEFESNAGNMLTFGGGTRLMVKP Vbeta: DTEVTQTPKHLVMGMTNKKSLKCEQHMGHRAMYWYKQKAKKPPELMFVYSYEKLSINESVPSRFSPECPNSSLLNLHLHALQPEDSALYLCASSLQITTDGYTFGSGTRLTVV | 2% | 16.3% | 2.82% | no recognition | recognises | no recognition | IFNγ ELISpot, KTCR-3 CD8+ T cells co-cultured with CFPAC-1 (HLA-A*02:01^+ KRAS^G12V), Mean (SFU of IFNγ/2.0 × 10^4 cell input) [1]: 21; IFNγ ELISpot, KTCR-3 CD8+ T cells co-cultured with CFPAC-1 (HLA-A*02:01^+ KRAS^G12V), replicate (SFU of IFNγ/2.0 × 10^4 cell input) [1]: 13 and 19; IFNγ ELISpot, KTCR-3 CD8+ T cells co-cultured with PANC-1 (HLA-A*02:01^+ KRAS^G12D), Mean (SFU of IFNγ/2.0 × 10^4 cell input) [2]: 63; IFNγ ELISpot, KTCR-3 CD8+ T cells co-cultured with PANC-1 (HLA-A*02:01^+ KRAS^G12D), replicate (SFU of IFNγ/2.0 × 10^4 cell input) [2]: 73 and 53
KTCR-2 (TCR, V domains shown) Valpha: GESVGLHLPTLSVQEGDNSIINCAYSNSASDYFIWYKQESGKGPQFIIDIRSNMDKRQGQRVTVLLNKTVKHLSLQIAATQPGDSAVYFCAENRDTDKLIFGTGTRLQVFP Vbeta: DGGITQSPKYLFRKEGQNVTLSCEQNLNHDAMYWYRQDPGQGLRLIYYSQIVNDFQKGDIAEGYSVSREKKESFPLTVTSAQKNPTAFYLCASSIWLGPKGPGELFFGEGSRLTVL | 4% | 19.1% | 4.79% | no recognition | recognises | no recognition | IFNγ ELISpot, KTCR-2 CD8+ T cells co-cultured with CFPAC-1 (HLA-A*02:01^+ KRAS^G12V), Mean (SFU of IFNγ/2.0 × 10^4 cell input) [1]: 11.5; IFNγ ELISpot, KTCR-2 CD8+ T cells co-cultured with CFPAC-1 (HLA-A*02:01^+ KRAS^G12V), replicate (SFU of IFNγ/2.0 × 10^4 cell input) [1]: 8 and 15; IFNγ ELISpot, KTCR-2 CD8+ T cells co-cultured with PANC-1 (HLA-A*02:01^+ KRAS^G12D), Mean (SFU of IFNγ/2.0 × 10^4 cell input) [2]: 98.5; IFNγ ELISpot, KTCR-2 CD8+ T cells co-cultured with PANC-1 (HLA-A*02:01^+ KRAS^G12D), replicate (SFU of IFNγ/2.0 × 10^4 cell input) [2]: 105 and 92
